Measurements: patent US11859229B2, “Polyvinyl alcohol-degrading enzyme and process for producing the same” (Hayashibara Co., Ltd., priority 2017, dated 2024)

What was measured:
Format in all cases: biochemical
[1] = Detection of β-diketone hydrolyzing activity (acetone from 2,4-pentanedione by gas chromatography); design: key: Yes: Acetone, a product by the hydrolysis, was qualitatively detected; details: qualitative
Description: As shown in the above (2), the PVA-degrading enzyme of the present invention has an activity of hydrolyzing […]-diketone, i.e., […]-diketone-hydrolyzing activity. Enzymes having β-diketone-hydrolyzing activity can hydrolyze an oxidized PVA having a […]-diketone structure (i.e., oxidized PVA). Beta-diketone-hydrolyzing activity can be detected by examining the activity of hydrolyzing 2, 4-pentanedione which is a model compound of oxidized PVA having a […]-diketone structure. Acetone and acetic acid are formed when a PVA-degrading enzyme hydrolyzes 2,4-pentanedione. Therefore, for example, […]-diketone-hydrolyzing activity can be detected by the following method using 2,4-pentanedione as a substrate.
2,4-Pentanedione (Reagent grade, commercialized by Wako Pure Chemical Industries Co., Ltd., Osaka, Japan) was added to 50 mM sodium phosphate buffer (pH 7.0) to give a concentration of 0.2% (w/v) to make into a substrate solution. To 1 mL of the substrate solution, 0.2 mL of enzyme solution and 0.8 mL of 50 mM sodium phosphate buffer (pH 7.0) were added and then the mixture was shaken at 27° C. for 3 hours for the reaction. After the reaction, 2 mL of the reaction mixture was withdrawn and put in a glass vial, and then the vial was sealed and heated at 95° C. for 40 min. […]

[2] = PVA-degrading (viscosity-reducing) activity; details: at each purification step
Procedure: While, activity as a PVA-degrading enzyme can be measured, for example, by measuring the viscosity reduction of a PVA solution, caused by the degradation of PVA, as an index using the following method.
To 0.5 mL of a substrate solution prepared by dissolving PVA (Reagent grade polyvinyl alcohol, polymerization degree: 2,000, Nacalai Tesque Inc., Kyoto, Japan) into 100 mM sodium phosphate buffer (pH 7.0) to give a concentration of 2% (w/v), 15 µL of 2% (w/v) of sodium azide solution was added, and then 0.5 mL of an enzyme solution is further added and reacted with shaking at 27° C. for 60 min. After the reaction, 0.6 mL of the reaction mixture was withdrawn and its viscosity was measured using a Cone plate-type viscometer (“DV-II+Pro”, Brookfield Co., Ltd.) at 30° C. Separately, the enzyme solution was added to the substrate solution and the viscosity was measured immediately, and the viscosity was used as that at zero-min reaction. The PVA-degrading activity was calculated based on the following formula. One unit of the PVA-degrading activity was defined as the amount of enzyme that causes a 10%-reduction of relative viscosity per min under the above conditions. […]

[3] = Degradation of PVA by PVA-degrading enzyme: time course of viscosity of reaction mixture; details: for Viscosity of reaction mixture: 35° C.
Procedure: Using the purified enzyme preparation of PVA-A obtained by the method of Experiment 2, the enzyme preparations varying the amount of enzyme were allowed to act on substrate solutions varying in PVA concentration, and the time course of the degradation of PVA was investigated by measuring the reduction of viscosity of the reaction mixture.
PVA as a substrate (Reagent grade polyvinyl alcohol, polymerization degree: 2,000, commercialized by Nacalai Tesque Inc., Kyoto, Japan), 50 mM sodium phosphate buffer (pH 7.0), and the purified enzyme solution of PVA-A dissolved in the same buffer were mixed, and the reaction mixtures (volume: 1 mL) with the final concentration of PVA of 1%, 4% or 10% (w/v), and the amount of PVA-A per 1 g-PVA of 1 (or 1.25), 5 or 10 units as PVA-oxidizing activity was prepared. Then, those reaction mixtures in plastic tubes were reacted with shaking at 160 rpm at 35° C. for 1, 4 or 20 hours. In each PVA concentration, a reaction mixture prepared by substituting the enzyme solution to 50 mM phosphate buffer (pH 7.0) was used as control (the amount of enzyme: zero unit). To viscosity measurement using “DV-II+Pro”, a cone-plate viscometer manufactured by Brookfield, Boston, USA, 0.6 mL of a reaction mixture obtained by reacting under each condition was subjected.

[4] = Gel filtration HPLC of PVA degradation products (molecular weight); details: 10 units of the enzyme on 1% (w/v) PVA for 20 hours; substrate PVA Mw about 10.6×10^4
Procedure: While, the molecular weight of the degraded product of PVA was analyzed by conventional gel filtration HPLC for a reaction mixture obtained by allowing 10 units of the enzyme to act on 1% (w/v) PVA solution for 20 hours. Gel filtration HPLC was carried out using the following conditions: • Column: “TSKgel […]-4000” (manufactured by Tosoh Corporation, Tokyo, Japan) • (Two columns were tandemly connected.); • Eluent: 50 mM phosphate buffer eluent (pH7.0); • Column temperature: 40° C.; • Flow rate: 0.5 mL/min; • Detector: “RID-20A”, a differential refractometer, manufactured by Shimadzu Corporation, Kyoto, Japan.
The molecular weights of PVA and the degradation products of PVA were respectively calculated based on a calibration curve of molecular weights prepared by subjecting pullulan standards for molecular weight measurement, commercialized by Hayashibara Co., Ltd., Okayama, Japan, to gel filtration HPLC in the same manner. The gel filtration HPLC chromatogram of the reaction mixture (symbol “b” in FIG. 11) is shown in FIG. 11 in comparison with that of PVA used as a substrate (symbol “a” in FIG. 11).

B1: PVA-A: purified PVA-degrading hybrid enzyme from Pseudomonas sp. VT1B strain, amino acid sequence of SEQ ID NO: 2 (protein, listed as Pseudomonas sp.)
chain: AENWPMFGKNYENTRATSDTQISTANISTLNVVRRTTDGGITGTPTVVDGVAYYSDFSGYVKAVRVSDGVVLWRVRPQTTMLSPSPFVTADTVYVAGNNSYVYALNRANGAVRWTTQIETSPNSRISSSPIVVGNILIIGTGSYQVFLPATPMFRGRVAFLNATTGAILPYSTNMCPSASCGGGISVWSTAAIDESTRTGYIGTGQAYRDPAGPYSDALVAFNIDTGAIRWARQFLANDVYQLGGTLRYDYDVGAAPNLFVANGQRMVGVGGKDGTYRAFNRDTGAPIWNTPVGRGSAIGGVMQSTAYGDGRIYVTSNTSTIGSGRNDPVPATAEASALDAATGAPVWIRQLDAGGFGGVAYANGLMYASTWDGRLRVFNAANGNIVREVQVSPSRGAYVPAPTDGFPNGSAGGPVVYGNRVLMGYGWTWVLNINGGLTTMEATVGGGASQTVTLASSSDTYVQSGTPTTNYAYDVNLLARLADAEGLTRASFLQFPLTAVPAGTITSARLRLYGRHDAPTGTGQSVSVWPGTKTTTWSGPNVTYNNSSTETGVDFYATSSIATATVGITPQYYEWNVTDYVASRRSLGHATFGVAVNSAHQYRVTLNSADNTANRPELVVTVSGGTGSQLPGSCPSGFTARAGVNQGFMHNGVARGFVLNVPANVSTPRPVFVSLTGSVESTNENLGARGGAGALNNDGFLVIGPVRRCAGQDPNGAGTSVNGGTCNQAGTGGWNWNPWNEGRVFAAAGDPWKTAEGPDSQFLEAVVRCVAASYPVDSTRMYLGGISSGATMTHRALLFNSDFWAGGLPLSGEWYVSQDNGTAYPGADEFAARRQAVINNPTKIFQGRVGPLPLPATQSPMIVISMWGGANDIWYCGSTLCADYRPSTQAASNYFSALPNVVHVACSSSHGHQWPTQNRAAFNTWAATTLASHPKGTPASSFVLPPPPAGYSCRVGRYTDHYSGT
- 2,4-Pentanedione-Degrading Activity [1]: Yes*
- Total PVA-Degrading Activity (Viscosity-reducing Activity) [2]: 8.2 U
- Viscosity of reaction mixture ([3]; PVA 1% (w/v), 1.25 U/g-PVA, 0 hour): 2.7 mPa·s
- Viscosity of reaction mixture ([3]; PVA 1% (w/v), 1.25 U/g-PVA, 1 hour): 2.3 mPa·s
- Viscosity of reaction mixture ([3]; PVA 1% (w/v), 1.25 U/g-PVA, 4 hours): 1.7 mPa·s
- Viscosity of reaction mixture ([3]; PVA 1% (w/v), 1.25 U/g-PVA, 20 hours): 1.4 mPa·s
- Viscosity of reaction mixture ([3]; PVA 1% (w/v), 5 U/g-PVA, 0 hour): 2.5 mPa·s
- Viscosity of reaction mixture ([3]; PVA 1% (w/v), 5 U/g-PVA, 1 hour): 1.6 mPa·s
- Viscosity of reaction mixture ([3]; PVA 1% (w/v), 5 U/g-PVA, 4 hours): 1.3 mPa·s
- Viscosity of reaction mixture ([3]; PVA 1% (w/v), 5 U/g-PVA, 20 hours): 1.2 mPa·s
- Viscosity of reaction mixture ([3]; PVA 1% (w/v), 10 U/g-PVA, 0 hour): 2.7 mPa·s
- Viscosity of reaction mixture ([3]; PVA 1% (w/v), 10 U/g-PVA, 1 hour): 1.4 mPa·s
- Viscosity of reaction mixture ([3]; PVA 1% (w/v), 10 U/g-PVA, 4 hours): 1.3 mPa·s
- Viscosity of reaction mixture ([3]; PVA 1% (w/v), 10 U/g-PVA, 20 hours): 1.2 mPa·s
- Viscosity of reaction mixture ([3]; PVA 4% (w/v), 1 U/g-PVA, 0 hour): 34.0 mPa·s
- Viscosity of reaction mixture ([3]; PVA 4% (w/v), 1 U/g-PVA, 1 hour): 35.6 mPa·s
- Viscosity of reaction mixture ([3]; PVA 4% (w/v), 1 U/g-PVA, 4 hours): 18.6 mPa·s
- Viscosity of reaction mixture ([3]; PVA 4% (w/v), 1 U/g-PVA, 20 hours): 6.6 mPa·s
- Viscosity of reaction mixture ([3]; PVA 4% (w/v), 5 U/g-PVA, 1 hour): 30.3 mPa·s
- Viscosity of reaction mixture ([3]; PVA 4% (w/v), 5 U/g-PVA, 4 hours): 11.9 mPa·s
- Viscosity of reaction mixture ([3]; PVA 4% (w/v), 5 U/g-PVA, 20 hours): 3.7 mPa·s
- viscosity after reaction relative to the start of the reaction ([3]; PVA 4% (w/v), 5 units, 20 hours): about 1/10
- Viscosity of reaction mixture ([3]; PVA 10% (w/v), 1 U/g-PVA, 0 hour): 2530 mPa·s
- Viscosity of reaction mixture ([3]; PVA 10% (w/v), 1 U/g-PVA, 1 hour): 1490 mPa·s
- Viscosity of reaction mixture ([3]; PVA 10% (w/v), 1 U/g-PVA, 4 hours): 1550 mPa·s
- Viscosity of reaction mixture ([3]; PVA 10% (w/v), 1 U/g-PVA, 20 hours): 873 mPa·s
- Viscosity of reaction mixture ([3]; PVA 10% (w/v), 5 U/g-PVA, 1 hour): 1520 mPa·s
- Viscosity of reaction mixture ([3]; PVA 10% (w/v), 5 U/g-PVA, 4 hours): 769 mPa·s
- Viscosity of reaction mixture ([3]; PVA 10% (w/v), 5 U/g-PVA, 20 hours): 231 mPa·s
- viscosity after reaction relative to the start of the reaction ([3]; PVA 10% (w/v), 5 units per 1 g of PVA, 20 hours): about 1/10
- weight average molecular weight (Mw) of the degraded products of PVA [4]: about 4,400
